Target: ADRB2-luc234R233 (β2 adrenergic receptor fused at its C terminus to permuted firefly luciferase with R at the X position of the TEV cleavage site) (firefly) (UniProt P07550)
Assay: cell-based or functional assay

Sequence of Human β arrestin 2-TEV fusion (tobacco etch virus protease A fused to the C terminus of β arrestin 2) (P32121 1-409, tags or fused parts left off): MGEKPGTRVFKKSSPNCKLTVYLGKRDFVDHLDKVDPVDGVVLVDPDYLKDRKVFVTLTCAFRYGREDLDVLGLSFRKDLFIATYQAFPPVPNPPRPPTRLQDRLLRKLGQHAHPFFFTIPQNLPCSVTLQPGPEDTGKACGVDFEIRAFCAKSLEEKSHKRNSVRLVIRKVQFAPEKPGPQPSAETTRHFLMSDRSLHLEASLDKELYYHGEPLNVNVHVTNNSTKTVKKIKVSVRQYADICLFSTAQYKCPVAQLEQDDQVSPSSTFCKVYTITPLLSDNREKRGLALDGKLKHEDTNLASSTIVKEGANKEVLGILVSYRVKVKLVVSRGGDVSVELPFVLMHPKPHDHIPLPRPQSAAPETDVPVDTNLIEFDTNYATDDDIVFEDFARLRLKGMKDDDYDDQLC

Human β arrestin 2-TEV fusion (tobacco etch virus protease A fused to the C terminus of β arrestin 2) (from UniProt P32121 1-409; P04517 2040-2279)
> 3 fold: relative luminescence (reconstituted permuted luciferase) in co-transfected CHO-K1 cells, with or without 10 µM isoproterenol, 2 hours | relative luminescence in co-transfected CHO-K1 cells, with or without 10 µM isoproterenol, 2 hours | relative luminescence units in cotransfected CHO-K1 cells, with or without 10 µM ADRB2 agonist, 2 hours

Source: US20140162289A1
